Measurements published in article PMC10580935.

Columns and labels:
Assay in all cases: EMSA
Conditions in all cases: 20 mM Tris-HCl pH 8.0, 1 mM DTT, 50 mM KCl, 5 mM MgCl2, 0.05 mg/mL BSA, 10% glycerol
[1] = target: T1, IdeR (Mycobacterium bovis BCG) (UniProt P9WMH1)
T1 sequence: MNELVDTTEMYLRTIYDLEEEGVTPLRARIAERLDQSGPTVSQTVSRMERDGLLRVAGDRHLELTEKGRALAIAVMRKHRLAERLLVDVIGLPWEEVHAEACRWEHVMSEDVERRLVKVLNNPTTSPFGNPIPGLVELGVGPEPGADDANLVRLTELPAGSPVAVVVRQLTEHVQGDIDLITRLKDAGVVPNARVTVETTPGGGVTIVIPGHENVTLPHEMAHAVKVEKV

[2] = target: T2, IdeR;Zur (Mycobacterium bovis BCG;Mycobacterium bovis BCG) (UniProt P9WMH1+P9WN85)
T2 sequence 1: T1 sequence
T2 sequence 2: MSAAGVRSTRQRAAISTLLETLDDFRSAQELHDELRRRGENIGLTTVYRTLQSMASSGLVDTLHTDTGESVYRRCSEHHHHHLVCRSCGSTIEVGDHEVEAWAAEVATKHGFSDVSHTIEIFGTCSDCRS

[3] = target: T3, Zur (Mycobacterium bovis BCG) (UniProt P9WN85)
T3 sequence: T2 sequence 2

ACGTCAGCGTCTACCTTGCCATTTACCCGAGACGCGACGGGGGAAGCGGCCACCATGCCAATGTCATCACGCTCCACGCCTCCGCTGTCTCCTTCACCTACGCCCGCCATCGGCCGATCCGCCTGAACTTTGCCCCGAAGTTAGCATTGCATAAGCTAACTGTCGAGGCGACCGCGACCAATCGACTCGGCCCTGCGGCCAAGCTTTTAGGCACGGCTGGCAAGATCATGACCGATACTCCATTTCGTTGGTAGCCCGATATGCAGAGTGTAG (double strand) [esx-3p2]
binding [1]: binds
binding [2]: binds
binding [3]: no binding
